Patent publication US20090098127A1 (MEDICAL RESEARCH FUND OF TEL AVIV SOURASKY MEDICAL CENTER, published 2009)

Assays:
[1] = molecular target: T1, hypoxia-inducible factor 1, alpha subunit isoform 1 (HIF-1α), untagged (human, UniProt Q16665 1-826); assay: cell-based or functional assay
HIF-1β = molecular target: T2, HIF-1β (UniProt P27540 2-789, limits assumed); assay: co-IP with anti-Flag antibody, HIF-1β immunoblot, HEK 293 cells
T2 construct: Endogenous protein in HEK 293 lysates; also called HIF-1β protein
T2 sequence (P27540 2-789 limits assumed): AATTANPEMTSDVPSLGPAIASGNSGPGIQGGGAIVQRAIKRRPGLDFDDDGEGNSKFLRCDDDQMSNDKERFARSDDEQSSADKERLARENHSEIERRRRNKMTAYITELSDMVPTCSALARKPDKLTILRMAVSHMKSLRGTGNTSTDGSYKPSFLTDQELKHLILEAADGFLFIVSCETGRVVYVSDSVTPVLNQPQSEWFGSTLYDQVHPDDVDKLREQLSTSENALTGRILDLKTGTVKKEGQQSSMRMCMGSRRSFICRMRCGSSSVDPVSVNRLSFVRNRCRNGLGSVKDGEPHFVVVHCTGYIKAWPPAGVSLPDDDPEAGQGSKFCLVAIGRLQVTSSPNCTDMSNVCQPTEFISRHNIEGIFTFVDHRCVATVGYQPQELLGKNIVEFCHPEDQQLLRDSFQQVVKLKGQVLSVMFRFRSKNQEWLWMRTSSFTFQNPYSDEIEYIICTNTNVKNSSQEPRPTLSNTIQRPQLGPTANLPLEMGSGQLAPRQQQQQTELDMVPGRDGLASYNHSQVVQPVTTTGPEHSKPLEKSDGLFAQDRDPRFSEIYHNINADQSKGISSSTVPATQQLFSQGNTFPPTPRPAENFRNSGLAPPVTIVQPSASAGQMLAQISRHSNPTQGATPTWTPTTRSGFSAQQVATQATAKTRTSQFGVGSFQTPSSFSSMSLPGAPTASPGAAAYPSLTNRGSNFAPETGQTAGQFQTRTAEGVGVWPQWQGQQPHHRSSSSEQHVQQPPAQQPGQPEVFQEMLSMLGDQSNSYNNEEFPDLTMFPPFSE
From the text: FIGS. 3a-f are autoradiograms illustrating HIF-1α immunoblotting of FLAG immunoprecipitates (IP) (FIG. 3b) or whole cell extracts (WCE) (FIG. 3a), FLAG immunoblotting of HIF-1α IP (FIG. 3d) or WCE (FIG. 3c), and HIF-1β immunoblotting of FLAG IP (FIG. 3f) or WCE (FIG. 3e). HEK 293 cells were transiently co-transfected with two of the following expression vectors: p3×Flag-cmv-25 (EV), pcdna3.1-HIF-1α (HIF-1α) or p3×Flag-MSF-A (MSF-A), and two days following transfection under normoxic conditions WCE or IP were subjected to immunoblot (IB) analysis. Lane 1-EV and HIF-1α; lane 2-MSF-A and HIF-1α.
To confirm the interaction between the HIF-1α and the MSF-A proteins, HEK 293 cells were transiently co-transfected with the p3×Flag-MSF-A and the pcDNA3.1-HIF-1α vectors, and were grown for 24 hours under normoxic conditions (i.e., conditions of 20% oxygen), following which whole cell extracts (WCE) were subjected to co-immunoprecipitation (IP) using anti-FLAG or anti-HIF-1α antibodies. Following IP, the proteins were subjected to SDS-PAGE and immunoblotting (IB) using the counterpart antibody. As is shown in FIGS. 3a-d, following transfection with both expression vectors (i.e., pcDNA3.1-HIF-1α and p3×Flag-MSF-A) immunoprecipitates generated using either the anti-HIF-1α antibody or the anti-Flag antibody included the reciprocal proteins, i.e., the Flag-MSF-A or HIF-1α proteins, respectively.

p300 co-activator = molecular target: T3, p300 co-activator (UniProt Q09472 2-2414); assay: co-IP with anti-Flag antibody, p300 immunoblot; association within the HIF-1α complex, may be indirect
T3 construct: Endogenous protein, detected with anti-p300 antibody (Santa Cruz); also called p300 protein
T3 sequence (Q09472 2-2414 limits assumed): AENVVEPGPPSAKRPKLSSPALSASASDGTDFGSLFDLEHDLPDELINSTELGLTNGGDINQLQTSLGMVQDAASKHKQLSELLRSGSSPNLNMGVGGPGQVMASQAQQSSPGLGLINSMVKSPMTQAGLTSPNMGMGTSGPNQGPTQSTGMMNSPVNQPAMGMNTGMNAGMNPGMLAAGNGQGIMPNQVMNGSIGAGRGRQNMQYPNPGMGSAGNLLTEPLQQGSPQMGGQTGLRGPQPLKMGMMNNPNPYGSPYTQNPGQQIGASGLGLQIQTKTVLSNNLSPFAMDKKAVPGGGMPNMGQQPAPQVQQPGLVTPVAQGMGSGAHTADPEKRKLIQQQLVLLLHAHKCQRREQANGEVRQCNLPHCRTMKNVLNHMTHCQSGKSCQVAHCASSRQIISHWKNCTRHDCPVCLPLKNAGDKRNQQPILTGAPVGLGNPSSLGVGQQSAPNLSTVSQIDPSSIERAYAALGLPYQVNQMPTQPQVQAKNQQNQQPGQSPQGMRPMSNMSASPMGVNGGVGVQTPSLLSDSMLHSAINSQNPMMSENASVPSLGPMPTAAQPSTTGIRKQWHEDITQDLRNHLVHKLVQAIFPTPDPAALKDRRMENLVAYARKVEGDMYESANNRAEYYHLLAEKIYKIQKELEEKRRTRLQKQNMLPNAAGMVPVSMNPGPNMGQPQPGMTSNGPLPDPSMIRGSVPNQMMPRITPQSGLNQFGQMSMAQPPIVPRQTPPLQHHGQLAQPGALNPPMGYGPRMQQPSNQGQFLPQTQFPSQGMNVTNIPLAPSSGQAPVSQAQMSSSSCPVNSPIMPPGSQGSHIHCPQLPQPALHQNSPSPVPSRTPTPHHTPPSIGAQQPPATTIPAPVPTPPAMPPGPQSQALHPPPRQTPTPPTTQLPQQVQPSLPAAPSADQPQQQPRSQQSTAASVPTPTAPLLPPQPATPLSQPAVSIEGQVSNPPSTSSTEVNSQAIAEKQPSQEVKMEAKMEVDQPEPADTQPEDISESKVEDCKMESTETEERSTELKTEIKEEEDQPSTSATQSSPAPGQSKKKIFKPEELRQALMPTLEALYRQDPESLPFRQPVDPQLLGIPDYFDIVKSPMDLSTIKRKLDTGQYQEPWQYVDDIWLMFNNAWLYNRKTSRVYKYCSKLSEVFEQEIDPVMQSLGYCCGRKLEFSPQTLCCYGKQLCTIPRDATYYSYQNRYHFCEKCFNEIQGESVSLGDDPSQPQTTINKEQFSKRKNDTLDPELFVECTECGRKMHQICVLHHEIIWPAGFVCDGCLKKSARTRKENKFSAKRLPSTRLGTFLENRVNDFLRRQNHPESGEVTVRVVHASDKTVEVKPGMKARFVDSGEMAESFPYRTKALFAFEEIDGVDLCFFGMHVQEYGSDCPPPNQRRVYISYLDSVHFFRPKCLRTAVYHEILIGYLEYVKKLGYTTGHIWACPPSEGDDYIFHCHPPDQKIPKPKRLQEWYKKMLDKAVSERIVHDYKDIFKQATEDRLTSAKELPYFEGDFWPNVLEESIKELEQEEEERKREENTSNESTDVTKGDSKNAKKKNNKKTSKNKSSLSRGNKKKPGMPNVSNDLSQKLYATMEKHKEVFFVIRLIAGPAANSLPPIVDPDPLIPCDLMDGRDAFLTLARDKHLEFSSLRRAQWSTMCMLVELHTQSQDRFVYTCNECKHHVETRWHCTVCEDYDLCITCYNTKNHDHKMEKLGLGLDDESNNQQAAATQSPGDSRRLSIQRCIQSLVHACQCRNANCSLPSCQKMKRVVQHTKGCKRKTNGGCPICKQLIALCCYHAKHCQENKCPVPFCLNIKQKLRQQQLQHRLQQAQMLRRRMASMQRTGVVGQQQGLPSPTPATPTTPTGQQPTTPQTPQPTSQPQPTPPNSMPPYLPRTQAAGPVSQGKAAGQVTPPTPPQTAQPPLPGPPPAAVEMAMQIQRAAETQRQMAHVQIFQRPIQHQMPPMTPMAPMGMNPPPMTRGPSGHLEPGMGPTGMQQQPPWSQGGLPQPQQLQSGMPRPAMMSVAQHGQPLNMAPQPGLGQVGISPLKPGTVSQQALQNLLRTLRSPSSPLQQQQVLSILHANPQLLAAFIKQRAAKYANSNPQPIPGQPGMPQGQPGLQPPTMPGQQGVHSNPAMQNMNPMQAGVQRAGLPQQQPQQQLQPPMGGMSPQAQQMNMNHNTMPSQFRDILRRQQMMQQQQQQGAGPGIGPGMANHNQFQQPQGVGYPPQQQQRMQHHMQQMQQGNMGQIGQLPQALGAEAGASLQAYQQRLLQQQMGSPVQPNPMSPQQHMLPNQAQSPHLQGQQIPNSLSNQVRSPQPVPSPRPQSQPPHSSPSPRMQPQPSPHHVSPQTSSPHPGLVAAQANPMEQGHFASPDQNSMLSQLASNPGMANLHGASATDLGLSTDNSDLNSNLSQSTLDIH
Description: The p300 co-activator is associated with HIF-1α and MSF-A proteins—To test the hypothesis that proteins, which are known to interact with the HIF-1α protein, such as the co-activator p300, are associated with MSF-A and HIF-1α, cells were co-transfected with the pcDNA3.1-HIF-1α and the p3×Flag-MSF-A expression vectors and IP experiments were performed using either anti-FLAG or anti-HIF-1α antibodies. As shown in FIGS. 5a-c, while the anti-HIF-1α antibody was capable of precipitating the p300 protein in both cells co-transfected with the pcDNA3.1-HIF-1α and the p3×Flag-cmv-25 expression vector alone and cells co-transfected with the pcDNA3.1-HIF-1α and the p3×Flag-MSF-A vectors, the anti-Flag antibody was capable of precipitating the p300 protein only in cells that were co-transfected with the pcDNA3.1-HIF-1α and the p3×Flag-MSF-A vectors.

[2] = molecular target: T1, hypoxia-inducible factor 1, alpha …; assay: IP with HIF-1α antibody, Flag immunoblot, HEK 293 cells

T1 sequence (Q16665 whole entry, canonical isoform): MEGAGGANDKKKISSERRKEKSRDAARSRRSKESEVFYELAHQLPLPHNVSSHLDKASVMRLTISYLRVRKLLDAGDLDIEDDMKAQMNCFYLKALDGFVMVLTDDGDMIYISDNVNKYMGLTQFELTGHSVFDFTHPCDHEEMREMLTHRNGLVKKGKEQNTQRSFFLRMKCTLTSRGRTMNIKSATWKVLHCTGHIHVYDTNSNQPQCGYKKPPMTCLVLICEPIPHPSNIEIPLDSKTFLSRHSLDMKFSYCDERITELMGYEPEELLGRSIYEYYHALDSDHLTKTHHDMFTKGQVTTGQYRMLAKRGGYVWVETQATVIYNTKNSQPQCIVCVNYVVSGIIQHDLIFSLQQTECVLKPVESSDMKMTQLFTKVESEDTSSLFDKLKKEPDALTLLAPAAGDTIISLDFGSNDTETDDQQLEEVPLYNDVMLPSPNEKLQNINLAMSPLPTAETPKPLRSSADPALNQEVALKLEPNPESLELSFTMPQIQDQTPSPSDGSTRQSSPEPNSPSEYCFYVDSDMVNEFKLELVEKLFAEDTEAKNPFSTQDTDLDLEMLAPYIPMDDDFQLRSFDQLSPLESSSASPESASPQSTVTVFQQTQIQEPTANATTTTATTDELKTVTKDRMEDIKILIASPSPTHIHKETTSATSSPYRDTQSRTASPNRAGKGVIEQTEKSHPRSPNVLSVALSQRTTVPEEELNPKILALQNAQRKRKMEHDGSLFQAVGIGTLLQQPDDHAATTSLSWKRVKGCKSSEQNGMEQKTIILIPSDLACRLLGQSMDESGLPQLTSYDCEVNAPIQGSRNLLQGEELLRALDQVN

degradation half-life of HIF-1α (cycloheximide, PC-3-MSF-A cells against PC-3-Neo cells) [1]	half-life of HIF-1α protein (pulse-chase, PC-3-MSF-A cells against PC-3-Neo cells) [1]	luciferase activity (HRE reporter), hypoxia as compared to normoxia, PC-3 cells [1]	binding result (HIF-1β)	binding result (p300 co-activator)	binding result [2]	Binder
40 min	~45 min	50 fold	no binding	binds		Flag-MSF-A (p3×Flag-MSF-A product, wild type) (other, not shown: small tags and cut ends, FLAG at the amino terminal of the recombinant protein; Expressed in HEK 293 or PC-3 cells and assayed in lysates; also called Flag-tagged MSF-A; recombinant MSF-A) MKKSYSGGTRTSSGRLRRLGDSSGPALKRSFEVEEVETPNSTPPRRVQTPLLRATVASSTQKFQDLGVKNSEPSARHVDSLSQRSPKASLRRVELSGPKAAEPVSRRTELSIDISSKQVENAGAIGPSRFGLKRAEVLGHKTPEPAPRRTEITIVKPQESAHRRMEPPASKVPEVPTAPATDAAPKRVEIQMPKPAEAPTAPSPAQTLENSEPAPVSQLQSRLEPKPQPPVAEATPRSQEATEAAPSCVGDMADTPRDAGLKQAPASRNEKAPVDFGYVGIDSILEQMRRKAMKQGFEFNIMVVGQSGLGKSTLINTLFKSKISRKSVQPTSEERIPKTIEIKSITHDIEEKGVRMKLTVIDTPGFGDHINNENCWQPIMKFINDQYEKYLQEEVNINRKKRIPDTRVHCCLYFIPATGHSLRPLDIEFMKRLSKVVNIVPVIAKADTLTLEERVHFKQRITADLLSNGIDVYPQKEFDEDSEDRLVNEKFREMIPFAVVGSDHEYQVNGKRILGRKTKWGTIEVENTTHCEFAYLRDLLIRTHMQNIKDITSSIHFEAYRVKRLNEGSSAMANGVEEKEPEAPEM
					binds	Flag-ΔN-MSF-A (p3×Flag-ΔN-MSF-A product) (other, Deletion of the first 25 amino acids of MSF-A; also called N-terminal truncated form of MSF-A; not shown: N-terminal Flag tag from vector p3×FLAG-myc-CMV-25) ALKRSFEVEEVETPNSTPPRRVQTPLLRATVASSTQKFQDLGVKNSEPSARHVDSLSQRSPKASLRRVELSGPKAAEPVSRRTELSIDISSKQVENAGAIGPSRFGLKRAEVLGHKTPEPAPRRTEITIVKPQESAHRRMEPPASKVPEVPTAPATDAAPKRVEIQMPKPAEAPTAPSPAQTLENSEPAPVSQLQSRLEPKPQPPVAEATPRSQEATEAAPSCVGDMADTPRDAGLKQAPASRNEKAPVDFGYVGIDSILEQMRRKAMKQGFEFNIMVVGQSGLGKSTLINTLFKSKISRKSVQPTSEERIPKTIEIKSITHDIEEKGVRMKLTVIDTPGFGDHINNENCWQPIMKFINDQYEKYLQEEVNINRKKRIPDTRVHCCLYFIPATGHSLRPLDIEFMKRLSKVVNIVPVIAKADTLTLEERVHFKQRITADLLSNGIDVYPQKEFDEDSEDRLVNEKFREMIPFAVVGSDHEYQVNGKRILGRKTKWGTIEVENTTHCEFAYLRDLLIRTHMQNIKDITSSIHFEAYRVKRLNEGSSAMANGVEEKEPEAPEM
					binds	Flag-ΔG-MSF-A (p3×Flag-ΔG-MSF-A product) (other, also called AG-MSF-A; not shown: N-terminal Flag tag from vector p3×Flag-myc-CMV-25) MKKSYSGGTRTSSGRLRRLGDSSGPALKRSFEVEEVETPNSTPPRRVQTPLLRATVASSTQKFQDLGVKNSEPSARHVDSLSQRSPKASLRRVELSGPKAAEPVSRRTELSIDISSKQVENAGAIGPSRFGLKRAEVLGHKTPEPAPRRTEITIVKPQESAHRRMEPPASKVPEVPTAPATDAAPKRVEIQMPKPAEAPTAPSPAQTLENSEPAPVSQLQSRLEPKPQPPVAEATPRSQEATEAAPSCVGDMADTPRDAGLKQAPASRNEKAPVDFGYVGIDSILEQMRRKAMKQGFEFNIMVVTLINTLFKSKISRKSVQPTSEERIPKTIEIKSITHDIEEKGVRMKLTVIDTPGFGDHINNENCWQPIMKFINDQYEKYLQEEVNINRKKRIPDTRVHCCLYFIPATGHSLRPLDIEFMKRLSKVVNIVPVIAKADTLTLEERVHFKQRITADLLSNGIDVYPQKEFDEDSEDRLVNEKFREMIPFAVVGSDHEYQVNGKRILGRKTKWGTIEVENTTHCEFAYLRDLLIRTHMQNIKDITSSIHFEAYRVKRLNEGSSAMANGVEEKEPEAPEM
